Test results: patent US20220362355

Target: fibrin clot obtained by reacting fibrinogen with thrombin

B1: recombinant protein HtrA2 (residues 134-458 of the HtrA2 amino acid sequence) (protein)
chain: AVPSPPPASPRSQYNFIADVVEKTAPAVVYIEILDRHPFLGREVPISNGSGFVVAADGLIVTNAHVVADRRRVRVRLLSGDTYEAVVTAVDPVADIATLRIQTKEPLPTLPLGRSADVRQGEFVVAMGSPFALQNTITSGIVSSAQRPARDLGLPQTNVEYIQTDAAIDFGNSGGPLVNLDGEVIGVNTMKVTAGISFAIPSDRLREFLHRGEKKNSSSGISGSQRRYIGVMMLTLSPSILAELQLREPSFPDVQHGVLIHKVILGSPAHRAGLRPGDVILAIGEQMVQNAEDVYEAVRTQSQLAVQIRRGRETLTLYVTPEVTE
- A415 (dissolution of the fibrin clot, spectrophotometer, 2 mg/ml enzyme, 37 C, 24 h): 1 ± 0.09 A415
